What all share (test): peptide or protein array
Assay [1] addresses T1, Proline-rich protein 4 peptide (18-mer) (human).
T1 peptide: GHRQLSLPRFPSVSLQEA

For assay [2], the target named is T2, Tyrosine protein kinase ABL1 peptide (18-mer) (human).
T2 peptide: KKKKKTAPTPPKRSSSFR

The target of assay [3] is T3, Adenylyl cyclase–associated protein 1 peptide (18-mer) (human).
T3 peptide: PPPPPPCPPPPPVSTISC

The target in assay [4] is T4, Statherin peptide (18-mer) (human).
T4 peptide: RFGYGYGPYQPVPEQPLY

Assay [5] has as its target T5, Rab11 family interacting protein 5 peptide (18-mer) (human).
T5 peptide: RIMETSPTLLQIPPGPPK

The target of assay [6] is T6, Ankyrin repeat and SAM domain–containing protein 1A peptide (18-mer) (human).
T6 peptide: DRPYEEPPQKPPRFSQLR

Assay [7] has as its target T7, Serine-threonine protein kinase N3 peptide (18-mer) (human).
T7 peptide: EMTPPPKPPRLYLPQEPT

Assay [8] concerns the target T8, Focal adhesion kinase 1 peptide (18-mer) (human).
T8 peptide: DPAAPPKKPPRPGAPGHL

Assay [9] has as its target T9, NEDD9-interacting protein with calponin homology and LIM domains peptide (18-mer) (human).
T9 peptide: DPEMEPPPKPPRSCSALA

Assay [10] addresses T10, Coiled-coil domain–containing protein KIAA1826 peptide (18-mer) (human).
T10 peptide: SRRENELPDFPHIDEFFT

The target in assay [11] is T11, UPF0027 protein C22orf28 peptide (18-mer) (human).
T11 peptide: GSTRAFPPHHPLIAVDYQ

For assay [12], the target named is T12, EGFR kinase substrate 8 peptide (18-mer) (human).
T12 peptide: PKEQFIPPYVPRFRNGWE

For assay [13], the target named is T13, SET and MYND domain–containing protein 3 peptide (18-mer) (human).
T13 peptide: NGLRAVTPLRPGELLFRS

Assay [14] concerns the target T14, Tight junction protein ZO-2 peptide (18-mer) (human).
T14 peptide: FGRSILKPSTPIPPQEGE

In assay [15] the target is T15, U1 small nuclear ribonucleoprotein C peptide (18-mer) (human).
T15 peptide: GAMIPPPPSLPGPPRPGM

Assay [16] concerns the target T16, Serine-threonine protein kinase WNK1 peptide (18-mer) (human).
T16 peptide: NATALELPGLPLSLPQPS

In assay [17] the target is T17, Glutamate–cysteine ligase catalytic peptide (18-mer) (human).
T17 peptide: WQTMRFKPPPPNSDIGWR

For assay [18], the target named is T18, YLP motif–containing protein 1 peptide (18-mer) (human).
T18 peptide: HHLPPPPLPPPPVMPGGG

Assay [19] concerns the target T19, Gephyrin peptide (18-mer) (human).
T19 peptide: FGRVFMKPGLPTTFATLD

Assay [20] deals with T20, Dishevelled, dsh homolog 3 peptide (18-mer) (human).
T20 peptide: MAFPRPRPWGPQEPLRAA

Assay [21] addresses T21, Diaphanous homolog 1 peptide (18-mer) (human).
T21 peptide: LPGGTAIPPPPPLPGSAR

Assay [22] concerns the target T22, DAZ-associated protein 1 peptide (18-mer) (human).
T22 peptide: QFSFGYGPPPPPPDQFAP

The target of assay [23] is T23, Splicing factor 1 peptide (18-mer) (human).
T23 peptide: GMPPFGMPPAPPPPPPQN

B1: GST-tagged SNX26 SH3 domain (domain or fragment, human, UniProt O14559 189-247, looked up)
chain: AAAHVIKRYTAQAPDELSFEVGDIVSVIDMPPTEDRSWWRGKRGFQVGFFPSECVELFT
In the case of B1, the “relative binding strength (% of the strongest interaction of this SH3 domain)” value in [1] was determined as 100%; in assay [2] it was 20%; in assay [3], 10%; in [4] it was 28%.

B2: GST-tagged ARHGAP26 SH3 domain (domain or fragment, human, UniProt Q9UNA1 759-814, looked up)
chain: RKAKALYACKAEHDSELSFTAGTVFDNVHPSQEPGWLEGTLNGKTGLIPENYVEFL
Turning to B2, the “relative binding strength (% of the strongest interaction of this SH3 domain)” value in assay [5] is 6%; in assay [6], 27%; in assay [7] it was 100%; in assay [8] it was 91%; in [9], 64%.

B3: GST-tagged ARHGAP9 SH3 domain (domain or fragment, human, UniProt Q9BRR9 25-87, looked up)
chain: SQLCALYAFTYTGADGQQVSLAEGDRFLLLRKTNSDWWLARRLEAPSTSRPIFVPAAYMIEES
For B3, the “relative binding strength (% of the strongest interaction of this SH3 domain)” value in assay [10] worked out at 70%; in assay [11], 13%; in [12] it was 24%; in assay [13], 100%.

B4: GST-tagged ARHGAP12 SH3 domain (domain or fragment, human, UniProt Q8IWW6 15-73, looked up)
chain: VYIEVEYDYEYEAKDRKIVIKQGERYILVKKTNDDWWQVKPDENSKAFYVPAQYVKEVT
Turning to B4, the “relative binding strength (% of the strongest interaction of this SH3 domain)” value stood at 93% in assay [14], 100% in [15] and 52% in assay [16].

B5: GST-tagged SRGAP2 SH3 domain (domain or fragment)
chain: not shown
As for B5, the “relative binding strength (% of the strongest interaction of this SH3 domain)” value amounted to 18% in assay [17], 100% in assay [18], 55% in [19] and 9% in assay [20].

B6: GST-tagged ARHGAP4 SH3 domain (domain or fragment)
chain: not shown
Take B6: the “relative binding strength (% of the strongest interaction of this SH3 domain)” value was determined as 100% in assay [21], 18% in assay [22] and 7% in [23].
